# According to the supplement of paper PMC10567573:
# B1: INTS3 (parent)
# chain: KKREFRFHPIKETVVEEPVDITPY
# Variants of: B1
# Assay: protein stability index of a GFP-peptide fusion (GPS, HEK-293T) (PSI 1-6); higher = more stable
# Settings: c terminus: a fixed tail appended
# 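Also: lentivirally expressed fusions sorted by FACS into six bins by GFP to DsRed ratio, PSI derived from sequencing read proportions per bin multiplied by bin number.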
row,Variant,protein stability index
1,KKREFVFHPIKETVVEEPVDITPY [R6V],3.49
2,KKREFQFHPIKETVVEEPVDITPY [R6Q],4.23
3,KKREFMFHPIKETVVEEPVDITPY [R6M],4.02
4,KKREFCFHPIKETVVEEPVDITPY [R6C],3.87
5,KKREFLFHPIKETVVEEPVDITPY [R6L],4.15
6,KKREFWFHPIKETVVEEPVDITPY [R6W],2.55
7,KKREHRFHPIKETVVEEPVDITPY [F5H],4.36
8,KKRETRFHPIKETVVEEPVDITPY [F5T],4.52
9,KKREERFHPIKETVVEEPVDITPY [F5E],4.8
10,KKREARFHPIKETVVEEPVDITPY [F5A],4.36
11,KKREYRFHPIKETVVEEPVDITPY [F5Y],3.92
12,KKRECRFHPIKETVVEEPVDITPY [F5C],4.39
13,KKREDRFHPIKETVVEEPVDITPY [F5D],4.4
14,KKREMRFHPIKETVVEEPVDITPY [F5M],4.36
15,KKRERRFHPIKETVVEEPVDITPY [F5R],4.56
16,KKREKRFHPIKETVVEEPVDITPY [F5K],4.75
17,KKREPRFHPIKETVVEEPVDITPY [F5P],4.18
18,KKREGRFHPIKETVVEEPVDITPY [F5G],4.34
19,KKRESRFHPIKETVVEEPVDITPY [F5S],4.45
20,KKREVRFHPIKETVVEEPVDITPY [F5V],4.63
21,KKRELRFHPIKETVVEEPVDITPY [F5L],4.01
22,KKREIRFHPIKETVVEEPVDITPY [F5I],4.06
23,KKREQRFHPIKETVVEEPVDITPY [F5Q],4.37
24,KKRENRFHPIKETVVEEPVDITPY [F5N],4.53

row,Variant,protein stability index
1,KKREWRFHPIKETVVEEPVDITPY [F5W],2.56
2,KKRWFRFHPIKETVVEEPVDITPY [E4W],1.41
3,KKRFFRFHPIKETVVEEPVDITPY [E4F],1.94
4,KKRRFRFHPIKETVVEEPVDITPY [E4R],2.86
5,KKRPFRFHPIKETVVEEPVDITPY [E4P],2.62
6,KKRHFRFHPIKETVVEEPVDITPY [E4H],1.9
7,KKRAFRFHPIKETVVEEPVDITPY [E4A],2.29
8,KKRYFRFHPIKETVVEEPVDITPY [E4Y],1.81
9,KKRDFRFHPIKETVVEEPVDITPY [E4D],2.06
10,KKRIFRFHPIKETVVEEPVDITPY [E4I],2.05
11,KKRVFRFHPIKETVVEEPVDITPY [E4V],1.27
12,KKRMFRFHPIKETVVEEPVDITPY [E4M],2.04
13,KKRGFRFHPIKETVVEEPVDITPY [E4G],1.54
14,KKRKFRFHPIKETVVEEPVDITPY [E4K],2.79
15,KKRLFRFHPIKETVVEEPVDITPY [E4L],1.79
16,KKRQFRFHPIKETVVEEPVDITPY [E4Q],2.36
17,KKRTFRFHPIKETVVEEPVDITPY [E4T],2.07
18,KKRSFRFHPIKETVVEEPVDITPY [E4S],1.33
19,KKRNFRFHPIKETVVEEPVDITPY [E4N],1.48
20,KKRCFRFHPIKETVVEEPVDITPY [E4C],3.03
21,VKREFRFHPIKETVVEEPVDITPY [K1V],2.74
22,NKREFRFHPIKETVVEEPVDITPY [K1N],1.94
23,QKREFRFHPIKETVVEEPVDITPY [K1Q],1.97
24,YKREFRFHPIKETVVEEPVDITPY [K1Y],2.12

row,Variant,protein stability index
1,IKREFRFHPIKETVVEEPVDITPY [K1I],1.65
2,WKREFRFHPIKETVVEEPVDITPY [K1W],2.1
3,TKREFRFHPIKETVVEEPVDITPY [K1T],2.01
4,PKREFRFHPIKETVVEEPVDITPY [K1P],1.66
5,LKREFRFHPIKETVVEEPVDITPY [K1L],2.25
6,SKREFRFHPIKETVVEEPVDITPY [K1S],1.8
7,MKREFRFHPIKETVVEEPVDITPY [K1M],1.96
8,RKREFRFHPIKETVVEEPVDITPY [K1R],1.84
9,KKREFRNHPIKETVVEEPVDITPY [F7N],4.91
10,KKREFRLHPIKETVVEEPVDITPY [F7L],4.21
11,KKREFRYHPIKETVVEEPVDITPY [F7Y],2.84
12,KKREFRIHPIKETVVEEPVDITPY [F7I],4.23
13,KKREFRVHPIKETVVEEPVDITPY [F7V],4.65
14,KKREFRGHPIKETVVEEPVDITPY [F7G],4.71
15,KKREFRMHPIKETVVEEPVDITPY [F7M],4.4
16,KKREFRWHPIKETVVEEPVDITPY [F7W],3.25
17,KKREFRAHPIKETVVEEPVDITPY [F7A],4.76
18,KKREFRTHPIKETVVEEPVDITPY [F7T],4.79
19,KKREFRPHPIKETVVEEPVDITPY [F7P],4.58
20,KKREFRHHPIKETVVEEPVDITPY [F7H],4.63
21,KKREFRQHPIKETVVEEPVDITPY [F7Q],4.24
22,KKREFRKHPIKETVVEEPVDITPY [F7K],4.39
23,KKREFRSHPIKETVVEEPVDITPY [F7S],4.74
24,KKREFRRHPIKETVVEEPVDITPY [F7R],4.6

row,Variant,protein stability index
1,KKREFRCHPIKETVVEEPVDITPY [F7C],4.26
2,KKREFREHPIKETVVEEPVDITPY [F7E],4.62
3,KKREFRDHPIKETVVEEPVDITPY [F7D],4.43
4,KKREFRFHCIKETVVEEPVDITPY [P9C],2.03
5,KKREFRFHEIKETVVEEPVDITPY [P9E],3.18
6,KKREFRFHGIKETVVEEPVDITPY [P9G],2.5
7,KKREFRFHAIKETVVEEPVDITPY [P9A],2.5
8,KKREFRFHMIKETVVEEPVDITPY [P9M],2.17
9,KKREFRFHTIKETVVEEPVDITPY [P9T],2.42
10,KKREFRFHWIKETVVEEPVDITPY [P9W],1.81
11,KKREFRFHDIKETVVEEPVDITPY [P9D],3.8
12,KKREFRFHSIKETVVEEPVDITPY [P9S],2.04
13,KKREFRFHHIKETVVEEPVDITPY [P9H],2.83
14,KKREFRFHQIKETVVEEPVDITPY [P9Q],2.17
15,KKREFRFHVIKETVVEEPVDITPY [P9V],2.63
16,KKREFRFHRIKETVVEEPVDITPY [P9R],2.3
17,KKREFRFHFIKETVVEEPVDITPY [P9F],2.17
18,KKREFRFHIIKETVVEEPVDITPY [P9I],2.18
19,KKREFRFHYIKETVVEEPVDITPY [P9Y],1.99
20,KKREFRFHKIKETVVEEPVDITPY [P9K],2.59
21,KKREFRFHNIKETVVEEPVDITPY [P9N],3.02
22,KKREFRFHLIKETVVEEPVDITPY [P9L],1.9
